One molecule from patent US20240034813A1 (Janssen / Centocor, published 2024) can be followed below.

In experiment [1] the target is T1, recombinant cMet/HGFR with c-terminal His-tag, Cy5-labeled (UniProt P08581 25-932, limits assumed, Cy5 label (reacted with Cy5 Mono NHS Ester; sites not stated)).
T1 construct: Commercial protein; also called Cy5-c-MET; Cy5-labeled c-MET antigen; not shown: C-terminal His-tag
Put plainly: competitive TR-FRET (Eu-amivantamab/Cy5-c-MET), EC50 ratio vs Reference Material; Ex. 11 drug product, 0 months, 5 C table. The text has this:
(§1) In this procedure, varying concentrations of unlabeled bispecific EGFR-cMet antibody sample compete with donor fluorophore (Europium (Eu) chelate) labeled bispecific EGFR-cMet antibody for binding to an acceptor fluorophore (Cy5)-labeled c-MET antigen. Excitation of the donor fluorophore results in a transfer of energy to the bound acceptor fluorophore (FRET process). The resultant FRET is detected by emission of light at 665 nm using a microplate reader capable of measuring time-resolved fluorescence. Sample dose response curves are compared to the Reference Material (RM).
(§2) c-MET Binding Materials and Methods. Certified commercial cMet, a recombinant cMet/HGFR with c-terminal His-tag is reacted with certified commercial Cy5 Mono NHS Ester to produce Cy5-labeled c-MET. Validated bispecific EGFR-cMet antibody is reacted with certified commercial Europium (Eu) chelate to produce Eu labeled bispecific EGFR-cMet antibody. […] Fluorescence is then measured by spectrophotometry at 665 nm, plotted against antibody concentration and analyzed by a four-parameter logistic model. The antibody concentration required to obtain half of the maximum fluorescence response (EC50) is determined for RM, assay control and samples. The potencies of assay control and samples are calculated based on the ratio of the sample (or control) and RM EC50 values and reported as a percentage activity relative to the RM.
On the technique in general: In TR-FRET formats the signal depends on donor and acceptor labels being close together.

Experiment [2] concerns the target T2, recombinant human EGFR/ErbB1/HER1 with C-terminal His tag, Cy5-labeled (human, UniProt P00533 25-645, Cy5 label (reacted with Cy5 Mono NHS Ester; sites not stated)).
T2 construct: Commercial protein; also called Cy5-EGFR; Cy5-labeled EGFR antigen; not shown: C-terminal His tag
Put plainly: competitive TR-FRET (Eu-amivantamab/Cy5-EGFR), EC50 ratio vs Reference Material; Ex. 2 Formulation 3 (acetate), T0, 25 C table.
Excerpt: (§3) In this procedure, varying concentrations of unlabeled bispecific EGFR-cMet antibody sample compete with donor fluorophore (Europium (Eu) chelate) labeled bispecific EGFR-cMet antibody for binding to an acceptor fluorophore (Cy5)-labeled EGFR antigen. Excitation of the donor fluorophore results in a transfer of energy to the bound acceptor fluorophore (FRET process). The resultant FRET is detected by emission of light at 665 nm using a microplate reader capable of measuring time-resolved fluorescence. Sample dose response curves are compared to the RM.
as §2, with “EGFR” for “c-MET”, “EGFR,” for “cMet,”, “human EGFR/ErbB1/HER1” for “cMet/HGFR”, “C-terminal His tag” for “c-terminal His-tag”, “EGFR.” for “c-MET.”, “Eu-labeled” for “Eu labeled”

Experiment [3] addresses T2, recombinant human EGFR/ErbB1/HER1 with …. The experiment in a line: competitive TR-FRET (Eu-amivantamab/Cy5-EGFR), EC50 ratio vs Reference Material; Ex. 2 Formulation 3 (acetate), 3 months at 5 C.
Excerpt: as §3
as §2, with “EGFR” for “c-MET”, “EGFR,” for “cMet,”, “human EGFR/ErbB1/HER1” for “cMet/HGFR”, “C-terminal His tag” for “c-terminal His-tag”, “EGFR.” for “c-MET.”, “Eu-labeled” for “Eu labeled”

Experiment [4] shares this target. The experiment in a line: competitive TR-FRET (Eu-amivantamab/Cy5-EGFR), EC50 ratio vs Reference Material; Ex. 2 Formulation 3 (acetate), 3 months at 25 C.
Excerpt: as §3
as §2, with “EGFR” for “c-MET”, “EGFR,” for “cMet,”, “human EGFR/ErbB1/HER1” for “cMet/HGFR”, “C-terminal His tag” for “c-terminal His-tag”, “EGFR.” for “c-MET.”, “Eu-labeled” for “Eu labeled”

Experiment [5] has the same target. The experiment in a line: competitive TR-FRET (Eu-amivantamab/Cy5-EGFR), EC50 ratio vs Reference Material; Ex. 12 drug product with rHuPH20, 3 months at 5 C.
Excerpt: as §3
as §2, with “EGFR” for “c-MET”, “EGFR,” for “cMet,”, “human EGFR/ErbB1/HER1” for “cMet/HGFR”, “C-terminal His tag” for “c-terminal His-tag”, “EGFR.” for “c-MET.”, “Eu-labeled” for “Eu labeled”

In experiment [6] the target is T1, recombinant cMet/HGFR with c-terminal …. The experiment in a line: competitive TR-FRET (Eu-amivantamab/Cy5-c-MET), EC50 ratio vs Reference Material; Ex. 2 Formulation 1 (10 mM histidine), T0, 40 C table.
Excerpt: as §1, §2

Experiment [7] has the same target. Put plainly: competitive TR-FRET (Eu-amivantamab/Cy5-c-MET), EC50 ratio vs Reference Material; Ex. 2 Formulation 2 (50 mM histidine), 3 months at 40 C.
Excerpt: as §1, §2

For experiment [8] the target is unchanged. Put plainly: competitive TR-FRET (Eu-amivantamab/Cy5-c-MET), EC50 ratio vs Reference Material; Ex. 3 acetate formulation, 6 months at 25 C then 5 freeze/thaw cycles.
Excerpt: as §1, §2

B1: amivantamab (bispecific antibody, human IgG1, kappa)
heavy 1: not shown
light 1: not shown
heavy 2: not shown
light 2: DIQMTQSPSSVSASVGDRVTITCRASQGISNWLAWFQHKPGKAPKLLIYAASSLLSGVPSRFSGSGSGTDFTLTISSLQPEDFATYYCQQANSFPITFGQGTRLEIKRTVAAPSVFIFPPSDEQLKSGTASVVCLLNNFYPREAKVQWKVDNALQSGNSQESVTEQDSKDSTYSLSSTLTLSKADYEKHKVYACEVTHQGLSSPVTKSFNRGEC
notes: The samples tested were high concentration (160 mg/mL) formulations, fresh or stored or stressed; also called JNJ-61186372; bispecific EGFR-cMet antibody
Consider B1, for which the “cMET Binding activity relative to Reference Material (%)” value in experiment [1] stood at 85%. Also, the figures for the “EGFR Binding % activity relative to RM” value in experiment [2], in experiment [3] and in experiment [4] were 103%, 87% and 92%, respectively. In addition, the “EGFR Binding activity relative to Reference Material (%)” value in experiment [5] came to 82%. Moreover, the “cMET Binding % activity relative to RM” value in experiment [6] was 87%; in experiment [7], 77%; in experiment [8] it was 84%.
